Assay results published in the supplement of paper PMC9170038.

System: MS2 coat protein
Experiment: apparent KD of MS2 coat protein; designed switch direction (-1 OFF switch, 1 ON switch): -1; higher = weaker reporter binding
Procedure, shortened: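 Designed RNA switches sharing common flanks were transcribed on Illumina chips by stalled E. coli RNA polymerase. They were titrated with SNAP-549-labelled MS2 coat protein, from 0.7 or 1.5 nM doubling to 3 µM, in Tris-HCl pH 7.5 buffer with KCl, MgCl2, BSA, DTT, tRNA and Tween-20. Titrations ran without input, with 200 uM small-molecule ligand, or with an oligonucleotide input. The apparent KD of each design is the median over its clusters, after curve-fitting of normalised cluster fluorescence.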

[1] = input ligand: microRNA oligo, concentration not stated
[2] = Eterna round: R95, input ligand: microRNA oligo, concentration not stated
[3] = Eterna round: R95, input ligand: FMN 200 uM
[4] = Eterna round: R95, input ligand: none

Sequence | apparent KD of MS2 coat protein (input ligand: FMN 200 uM) [nM] | apparent KD of MS2 coat protein [1] [nM] | apparent KD of MS2 coat protein (input ligand: none) [nM] | apparent KD of MS2 coat protein [2] [nM] | apparent KD of MS2 coat protein [3] [nM] | apparent KD of MS2 coat protein [4] [nM]
CAACAUGAGGAUCACCCAUGUGGCCCUACGUGCUGGCUCGGGCAGGAUAUUAACCAAUGAGUAGUUAAGAAGGGCUCGCAAGUA [Eternabot solution 14] (Eterna round: R96, puzzle: Exclusion NG 3) | 223 | 40.6 | 76.6 |  |  | 
CAAGAACAGGUCAGGAUAUGGCAAAUAAAUAACAACCAGAAGGGACUUGAGGAUCACCCAAGUUUAGAAGGGUA [Tebeorus] (Eterna round: R97, puzzle: Brourd's mod of Exclusion 4) | 221 |  | 39.4 |  |  | 
CAAGCCUGAACGGCCGCUCACAUGAGGAUCACCCAUGUCACCUGUGCUAGAGGACCACAUUAAUCGCUUCGUCUUGG [Eternabot (L1) Solution 7] (Eterna round: R97, puzzle: Sensor, turn-off variant 1) | 69.8 |  | 88.9 |  |  | 
CAAUUAAUUAAUUAAUAAUACAUGAGGAUCACCCAUGUAGAUCCUACAUACAAGCUAAGUAGCUCGUCUUAUAAUUA [Stov1/2-A3] (Eterna round: R97, puzzle: Sensor, turn-off variant 1) | 417 |  | 625 |  |  | 
CACAAUGACGUCAGGAUAUGUAAACAGCGAAGUUUGUAGAAGGGACAUGAGGAUCACCCAUGUAUAACUGGGAG [Eternabot (L2) Solution 27] (Eterna round: R97, puzzle: Brourd's mod of Exclusion 4) | 220 |  | 149 |  |  | 
CACCGUUACUGAGGAUAUCUUACAUGAGGAUCACCCAUGUAAUAAAUGAGAAUUUCGGAUGUAUUAGAGAAGGCAGAAAUCGGC [Ostricism 61 - Jieux - Exclusion NG 2] (Eterna round: R96, puzzle: Exclusion NG 2) | 22.6 | 16.3 | 23.9 |  |  | 
CACCUGAAAGGAGGAUAUCUUACAUGAGGAUCACCCAUGUAAUAAAUGAGAAUUUCGAAUGUAAUAGAGAAGGCCUGAAAAGGC [Ostracism 85 - Jieux - Exclusion NG 2] (Eterna round: R96, puzzle: Exclusion NG 2) | 30.6 | 25 | 34.4 |  |  | 
CACCUGAAGAGAGGAUAUCAUACAUGAGGAUCACCCAUGUAAUAAAUGAGAAUUUCGAAUGUAAUUGAGAAGGCUCAAUAAGGC [Ostricism 95 - Jieux - Exclusion NG 2] (Eterna round: R96, puzzle: Exclusion NG 2) | 82.9 | 33 | 47.9 |  |  | 
CACGCAUCAGGAUAUACAUGAGGAUCACCCAUGUGUUCCAGCUAGGAAACUAGCAAAUGUAGAAGGGAUGCGUG [Mat - Exclusion 3 - JL Mod - D7] (Eterna round: R97, puzzle: Exclusion 3) | 727 |  | 208 |  |  | 
CACUUGGCAGGAUAUGCAAUUUUAGACAUGAGGAUCACCCAUGUGAUCAUUCCAUAUUAUGCAGAAGGGCCUAAAC [JR_E5_Sub050] (puzzle: Exclusion 5) |  |  |  | 214 |  | 
CAGCUGUCAGGAUAUCGUGCAUACAACGAAAGUUCUAUGUGCGAGAAGGGACAUGAGGAUCACCCAUGUUAACG [Omei Ex4 A25] (Eterna round: R97, puzzle: Exclusion 4) | 58 |  | 46 |  |  | 
CAGGAAGCGGAGGAUAUGAUGAAAACUCGGCAAUCAGAAGGCCGCACAUGAGGAUCACCCAUGUCGCAAAUACC [Eternabot (Original) Solution 36] (Eterna round: R97, puzzle: Exclusion 6) | 16.6 |  | 15.3 |  |  | 
CAGGAUAGAGGAUAUACGUAGAUACAGAUUCAUGUAAUCCUACAUGAGGAUCACCCAUGUAGAAGGCUAUCCUG [Fiskers Ex 2 - 18] (puzzle: Exclusion 2) |  |  |  | 17.6 |  | 
CAGGGCGCAGGAUAUAUCACAAUGCACAUGAGGAUCACCCAUGUCAUCCUCGCGCUUGAGAUAGAAGGGUGAAACC [Eternabot (L1) Solution 65] (Eterna round: R97, puzzle: Exclusion 5) | 21.1 |  | 23.7 |  |  | 
CAGUACGGAGGAUAUACAUGAGGAUCACCCAUGUACGCGGGUGUCACUGGGAGAACUUGUAGAAGGCCGAGUCC [Eternabot (L1) Solution 8] (Eterna round: R97, puzzle: Exclusion 3) | 196 |  | 107 |  |  | 
CAGUACUGAGGAUAUACAUGAGGAUCACCCAUGUGAGAGAUACUAAUGAGGUCGAUUAGUAGAAGGCAGUACUG [Mat X3R4 m4] (Eterna round: R97, puzzle: Exclusion 3) | 240 |  | 17.5 |  |  | 
CAGUACUGAGGAUAUACAUGAGGAUCACCCAUGUGAUUUAGUGCACGCGUACGUGUACGUAGAAGGCAGUACUG [JL 3.27 m1] (Eterna round: R97, puzzle: Exclusion 3) | 182 |  | 20.8 |  |  | 

Sequence | apparent KD of MS2 coat protein (input ligand: FMN 200 uM) [nM] | apparent KD of MS2 coat protein [1] [nM] | apparent KD of MS2 coat protein (input ligand: none) [nM] | apparent KD of MS2 coat protein [2] [nM] | apparent KD of MS2 coat protein [3] [nM] | apparent KD of MS2 coat protein [4] [nM]
CAGUACUGAGGAUAUACAUGAGGAUCACCCAUGUGGAGAGGAAAAGGAAGAAAAGAAGGUAGAAGGCGGUGCUG [JR_Ex3_Sub042] (Eterna round: R97, puzzle: Exclusion 3) | 196 |  | 40.8 |  |  | 
CAGUACUGAGGAUAUACAUGAGGAUCACCCAUGUGUACCAGCUAGGAAACUAGCAAAAGUAGAAGGCAGUACUG [828 mod 2 m10] (Eterna round: R97, puzzle: Exclusion 3) | 32.6 |  | 14.9 |  |  | 
CAGUACUGAGGAUAUACAUGAGGAUCACCCAUGUGUGUGAGAAAAUUAAUAAAAGAAUGUAGAAGGCGGUGCUG [JR_Ex3_Sub041] (Eterna round: R97, puzzle: Exclusion 3) | 645 |  | 357 |  |  | 
CAGUACUGAGGAUAUACAUGAGGAUCACCCAUGUGUUCCAGCUAGGAAACUAGCAAUAGUAGAAGGCAGUACUG [salish99_ex3_r3_090x] (Eterna round: R96, puzzle: Exclusion 3) | 417 | 19.1 | 23.2 |  |  | 
CAGUACUGAGGAUAUACAUGAGGAUCACCCAUGUGUUCCAGCUAGGAAACUAGCAAUAGUAGAAGGCAGUACUG [salish99_ex3_r3_090x] (puzzle: Exclusion 3) |  |  |  | 21.3 |  | 
CAGUACUGAGGAUAUACAUGAGGAUCACCCAUGUGUUCCGGCUAGGAAACUAGCAAAAGUAGAAGGCAGUACUG [salish99_ex3_r3_079] (puzzle: Exclusion 3) |  |  |  | 30.8 | 368 | 28.5
CAGUACUGAGGAUAUACAUGAGGAUCACCCAUGUGUUCCGGCUAGGAAACUAGCAAAGGUAGAAGGCAGUACUG [Salish 065 m11] (Eterna round: R97, puzzle: Exclusion 3) | 823 |  | 43.7 |  |  | 
CAGUACUGAGGAUAUACAUGAGGAUCACCCAUGUUUUCCAGCUAGGAAACUAGCAAGUGUAGAAGGCAGUACUG [Salish 065 m6] (Eterna round: R97, puzzle: Exclusion 3) | 342 |  | 25.6 |  |  | 
CAUACUAAAGUCAGGAUAUGCGGUCGAAUACGGGCGUAGAAGGGACAUGAGGAUCACCCAUGUAGAUAGUAAAG [EX-4 Malc #19] (puzzle: Brourd's mod of Exclusion 4) |  |  |  | 13.6 | 15.3 | 15.7
CAUAUGGGAGGAUAUGCAUAGAUAAAGAAACAUGUUCAACCACAUGAGGAUCACCCAUGUAGAAGGCCCAUAUG [Mat - Same state - Mayanna Mod - D102] (Eterna round: R96, puzzle: Exclusion 2) | 266 | 22.7 | 32.8 |  |  | 
CAUCCACAUGAGGAUCACCCAUGUCAGGAUAUCGCGCGCGCGUUUUCGGUCUUUCGCGCGAGAAGGGACGACUG (puzzle: Exclusion 1) |  |  |  | 13.3 |  | 
CAUGAUCUUCGGAAAAUGUACAUGAGGAUCACCCAUGUGACGAGUUACAUGAAAAACAAGCUUUUUGCUCGUCUUAU [Sensor v3 - Turn-off variant 1 - 10] (puzzle: Sensor v3, turn-off variant 1) |  |  |  | 288 | 411 | 623
CAUGAUCUUCGGAUCAUGUACAUGAGGAUCACCCAUGUUACGAGUUGAUCCUCAUACAAGCUUUUUGCUCGUCUUAU [Sensor v3 - Turn-off variant 1 - 26] (puzzle: Sensor v3, turn-off variant 1) |  |  |  | 14.8 | 22.2 | 20.8
CAUGUGUUAGGAUAUGCACAGAUCUCCGAAAGGAGAUCUGUGCAGAAGGAACAUGAGGAUCACCCAUGUUGAUG [Mod of Brourd 16 - Jieux - Exclusion 4] (Eterna round: R97, puzzle: Exclusion 4) | 136 |  | 37.3 |  |  | 
CAUUAUUAUCGAGGAUAUCCUAUUGUAAUACUGGGAGAAGGCGGACUCAACAUGAGGAUCACCCAUGUAAGACGGGUACUAGAU [Ex NG1 #22] (Eterna round: R96, puzzle: Exclusion NG 1) | 228 | 139 | 163 |  |  | 
CAUUAUUAUCGAGGAUAUCCUAUUGUAAUUCUGGGAGAAGGCGGACUCAACAUGAGGAUCACCCAUGUAAGACGGGUACUAGAU [Ex NG1 #21] (Eterna round: R96, puzzle: Exclusion NG 1) | 69.5 | 61 | 92 |  |  | 
